Measurements taken from article PMC9396398, “Crystal structure of Ankyrin-G in complex with a fragment of Neurofascin reveals binding mechanisms required for integrity of the axon initial segment” (The Journal of Biological Chemistry, 2022).
Numbering of substitutions follows the chain as printed.

Experiments:
Assay in all cases: ITC
AnkG R1-24 I277Q, L310Q = target: T1, AnkG R1-24 I277Q, L310Q (Rattus norvegicus)
T1 chain: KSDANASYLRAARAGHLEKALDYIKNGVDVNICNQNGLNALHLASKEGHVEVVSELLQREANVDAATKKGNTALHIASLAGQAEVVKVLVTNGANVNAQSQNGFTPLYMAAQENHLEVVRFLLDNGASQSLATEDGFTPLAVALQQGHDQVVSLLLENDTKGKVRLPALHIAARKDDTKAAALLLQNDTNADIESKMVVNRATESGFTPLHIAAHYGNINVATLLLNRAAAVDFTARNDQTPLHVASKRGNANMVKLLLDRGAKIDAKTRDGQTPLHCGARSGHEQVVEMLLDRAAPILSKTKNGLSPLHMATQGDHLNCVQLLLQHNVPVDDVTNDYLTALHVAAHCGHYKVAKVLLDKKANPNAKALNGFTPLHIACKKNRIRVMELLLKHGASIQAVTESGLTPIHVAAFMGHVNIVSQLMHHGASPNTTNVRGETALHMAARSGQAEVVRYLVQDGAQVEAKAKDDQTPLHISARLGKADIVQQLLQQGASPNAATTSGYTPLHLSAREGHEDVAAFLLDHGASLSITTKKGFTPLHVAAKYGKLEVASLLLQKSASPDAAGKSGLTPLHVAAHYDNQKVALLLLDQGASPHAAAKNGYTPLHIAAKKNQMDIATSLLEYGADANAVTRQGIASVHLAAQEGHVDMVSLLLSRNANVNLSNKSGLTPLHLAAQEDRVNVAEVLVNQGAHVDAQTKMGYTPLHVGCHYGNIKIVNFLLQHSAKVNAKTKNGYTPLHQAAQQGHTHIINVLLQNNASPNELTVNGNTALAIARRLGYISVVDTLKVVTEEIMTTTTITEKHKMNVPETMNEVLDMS

AnkG R1-24 T339A, N341A = target: T2, AnkG R1-24 T339A, N341A (Rattus norvegicus)
T2 chain: T1 chain with Q240I, Q273L, T302A, N304A

AnkG R1-24 V282Q = target: T3, AnkG R1-24 V282Q (Rattus norvegicus)
T3 chain: T1 chain with Q240I, V245Q, Q273L

B1: Nfasc ankyrin-binding domain (ABD, residues 1187-1214) (domain or fragment, UniProt P97685 1187-1214, looked up)
chain: SDDSLVDYGEGGEGQFNEDGSFIGQYTV
notes: also called Nfasc ABD; source: E. coli BL21 (DE3), purified (Ni-NTA, size-exclusion chromatography)
For B1, the Kd (AnkG R1-24 I277Q, L310Q) was 3 µM, the Kd (AnkG R1-24 T339A, N341A) was 2.5 µM and the Kd (AnkG R1-24 V282Q) was 1.3 µM.
